Literature values, collected in paper PMC10866841.
pKd: −log10 of the molar value. Like-named read-outs stand apart in the source and are kept apart here.

Legend:
C4d C4d (Homo sapiens) [1] = molecular target: C4d C4d (Homo sapiens) (UniProt P0C0L4)
[2] = molecular target: oligomeric amyloid-β (Homo sapiens) (UniProt P05067)
C4d C4d (Homo sapiens) [3] = molecular target: C4d C4d (Homo sapiens) (UniProt P0C0L4); remark: listed apart in the source
[4] = molecular target: oligomeric amyloid-β (Homo sapiens) (UniProt P05067); remark: listed apart in the source

PIRB, sequence (P97484 25-642): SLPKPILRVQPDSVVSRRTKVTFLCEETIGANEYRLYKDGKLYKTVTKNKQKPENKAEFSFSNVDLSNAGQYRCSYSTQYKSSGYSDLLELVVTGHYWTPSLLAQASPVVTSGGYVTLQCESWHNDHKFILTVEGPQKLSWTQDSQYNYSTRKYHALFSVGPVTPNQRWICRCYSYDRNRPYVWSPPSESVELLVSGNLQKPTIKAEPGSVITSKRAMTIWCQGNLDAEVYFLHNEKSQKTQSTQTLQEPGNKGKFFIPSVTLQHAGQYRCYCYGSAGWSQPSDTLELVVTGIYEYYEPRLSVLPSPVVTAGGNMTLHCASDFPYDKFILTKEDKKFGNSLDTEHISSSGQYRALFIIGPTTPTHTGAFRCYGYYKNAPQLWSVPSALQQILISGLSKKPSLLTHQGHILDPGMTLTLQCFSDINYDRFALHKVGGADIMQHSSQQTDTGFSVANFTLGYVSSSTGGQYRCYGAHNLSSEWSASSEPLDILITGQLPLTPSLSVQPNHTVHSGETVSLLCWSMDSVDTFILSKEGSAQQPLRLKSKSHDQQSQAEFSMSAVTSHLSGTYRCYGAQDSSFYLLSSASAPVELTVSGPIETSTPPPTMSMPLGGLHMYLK
LILRB2, sequence (Q8N423 22-460): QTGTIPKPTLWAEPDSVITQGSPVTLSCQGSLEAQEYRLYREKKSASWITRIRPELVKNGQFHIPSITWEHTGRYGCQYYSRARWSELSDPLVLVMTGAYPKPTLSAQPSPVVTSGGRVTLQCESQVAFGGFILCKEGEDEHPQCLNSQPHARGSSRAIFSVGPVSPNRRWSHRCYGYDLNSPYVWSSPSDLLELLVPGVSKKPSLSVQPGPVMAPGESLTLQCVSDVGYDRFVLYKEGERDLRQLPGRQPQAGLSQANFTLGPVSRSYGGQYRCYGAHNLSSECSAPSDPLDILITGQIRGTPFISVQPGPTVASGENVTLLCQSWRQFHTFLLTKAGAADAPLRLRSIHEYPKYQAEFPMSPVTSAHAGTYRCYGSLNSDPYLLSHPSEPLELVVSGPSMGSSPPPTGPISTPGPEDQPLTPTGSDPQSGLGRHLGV
C4d C4d (Homo sapiens), sequence (P0C0L4 957-1336): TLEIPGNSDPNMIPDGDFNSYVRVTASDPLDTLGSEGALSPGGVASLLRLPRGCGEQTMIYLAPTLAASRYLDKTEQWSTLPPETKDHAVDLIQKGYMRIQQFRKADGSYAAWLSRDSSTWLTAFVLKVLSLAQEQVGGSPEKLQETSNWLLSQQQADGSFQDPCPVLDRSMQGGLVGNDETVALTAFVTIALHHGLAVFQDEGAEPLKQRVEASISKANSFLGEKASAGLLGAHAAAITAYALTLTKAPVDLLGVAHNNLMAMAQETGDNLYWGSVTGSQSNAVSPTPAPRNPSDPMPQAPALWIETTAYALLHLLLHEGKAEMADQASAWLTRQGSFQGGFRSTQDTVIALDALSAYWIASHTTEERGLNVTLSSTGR
oligomeric amyloid-β (Homo sapiens), sequence (P05067 672-713): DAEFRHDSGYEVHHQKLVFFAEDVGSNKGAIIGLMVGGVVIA

pKd (C4d C4d (Homo sapiens) [1])	pKd [2]	pKd (C4d C4d (Homo sapiens) [3])	pKd [4]	Substance
6.20	6.74			LILRB2 (from UniProt Q8N423)
		6.20	6.74	PIRB (from UniProt P97484)
